The record followed here is patent US20260055441A1, “A PCR-ELISA ANALOGOUS ANTIBODY-FREE METHOD FOR DETECTING A TARGET NUCLEIC ACID IN A SAMPLE” (UNIVERSITÄT HEIDELBERG, priority 2022, published 2026).

The target of experiment [1] is T1, latent papain P13 (Carica papaya, UniProt P00784).
T1 construct: purchased Sigma Aldrich (Munich, Germany); host or cells: Papaya latex (natural source)
T1 sequence (P00784 134-345): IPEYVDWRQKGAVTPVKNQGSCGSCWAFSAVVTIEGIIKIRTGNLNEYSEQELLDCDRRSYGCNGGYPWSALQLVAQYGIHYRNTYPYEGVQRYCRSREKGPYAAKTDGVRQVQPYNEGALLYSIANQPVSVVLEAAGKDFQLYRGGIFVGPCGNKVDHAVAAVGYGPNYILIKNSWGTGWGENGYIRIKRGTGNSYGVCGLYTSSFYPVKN
Nature of the experiment: Latent papain reactivation assay with thiol activators at 10 μM, rates normalized to 10 μM cysteine (FIG. 18). The format is biochemical. The settings on record: activator 10 μM, latent papain 1 nM, Z-Phe-Arg-AMC 2 μM; for reaction rate compared to L-cysteine: pH 7; for normalized ratio rate/rate 10 μM cysteine of substrate hydrolysis after reactivation of latent papain: well buffer pH 7, no TCEP. As to the method:
All following described fluorometric assays (Examples 1-3) are based on the reaction of reversibly inactivated papain (latent papain) with an activator containing either sulfur or selenium (with the exception of TCEP). Different latent papain forms, buffer compositions and activators in various concentrations were compared. Papain was hereby transferred in buffer (standard well buffer consisted of 0.1 M phosphate pH 7, 4 mM EDTA, 0.01% Brij35 and if activators contained diselenides, 1 μM TCEP) mixed with activator and substrate inside 96 well plates (without prior washing of the plates). After reactivation, active papain hydrolyses the substrate Z-Phe-Arg-AMC (2 μM) and the resulting fluorescence was tracked every minute for 2 h. The slopes of the corresponding curves were calculated for the linear portion within the first 30 minutes and the resulting reaction rates were directly compared. Resulting reaction rates directly reflect reactivation efficiencies of each activator under each reaction condition. […] After addition of activator a fraction of latent papain is immediately reactivated in rather non-stoichiometric proportions. Complete reactivation can generally only be achieved with great excess of activator. The partial reactivation with smaller activator amounts appears almost instantaneously because the resulting reaction curve show linear progression from the start except for very low activator concentrations. After reactivation, all different latent papain forms result in the same active enzyme. If different latent papain forms show different reaction rates in identical activation assays, the efficiency of reactivation with the applied activator can be deduced. The same applies for reactivation of one latent papain form with different activators or reaction conditions.
Several thiol compounds and cysteine containing peptide activators (see Example 4.1) were compared for their potential to reactivate latent papain. To this end, the thiol compounds and cysteine containing peptide activators were utilized in reactivation assays (see Example 5, 5.2.2.2, fluorometric method 2) of papain P13 (see Example 1, 1.2) with an activator concentration of 10 μM. For thiols not completely soluble in phosphate buffer pH 7 at high concentrations, the 1 mM stock solution was prepared in DMSO, resulting in 1% DMSO in the reaction mixture. In order to normalize the observed reaction rates between assays, a 10 μM cysteine sample was additionally measured in every assay and reaction rates of the examined thiols were divided through the reaction rates produced by the 10 μM cysteine standard. Additionally, a measurement with 1 mM cysteine was performed in order to achieve maximal papain activation and therefore the maximal reaction rate within the confines of the assay. The resulting normalized rates are compared in FIG. 18.
Different assays of reactivating latent papain in solution were conducted in the course of this work. Various buffer compositions, supplements, 96 well plates, substrates, activators, concentrations as well as different latent papain forms were compared. In order to get an overview of all experiments, a standard method is described in the following and variations of this method are subsequently defined. First, the well buffer was prepared (0.1 M phosphate buffer pH 7, 4 mM EDTA, 0.01% Brij35). A 1 mM TCEP solution was prepared with 3 mM NaOH in 0.1 M Tris-HCl buffer pH 8. Papain substrate (Z-Phe-Arg-AMC or Suc-Leu-Leu-Val-Tyr-AMC) was prepared as a 200 μM solution in water and transferred equally to a PCR strip. Three serial dilutions of the activating agent with well buffer were used in the different experiments and the corresponding pipetting schemes are shown in Table 9. Papain was diluted to 0.1 μM with well buffer and transferred equally to a PCR strip. After preparation of the abovementioned solutions, TCEP (1 mM solution) was added to well buffer to yield a final TCEP concentration of 1.1 μM. […]

For experiment [2], the target named is T1, latent papain P13. The experiment can be described thus: Screening of peptide-based papain activators, rates normalized to cysteine ethyl ester (FIG. 19, FIG. 20). The class given is biochemical. The settings on record: for normalized ratio rate/rate cysteine ethyl ester (CysEE): activator 50 nM, latent papain P13 1 nM, substrate 2 μM, pH 7. The protocol:
L-Cysteine ethyl ester was utilized in identical peptide concentrations as a standard in order to calculate normalized reaction rates for each synthesized peptide.
[…] The assays were conducted in well buffer with 1 nM latent papain P13. In order to give a clear overview, only the normalized rates for activator concentrations of 50 nM are depicted and compared.
Additionally, 1 μM TCEP was added to each well of the cysteine concentration series in order to examine the influence of TCEP on reaction rates of thiols.
Different assays of reactivating latent papain in solution were conducted in the course of this work. Various buffer compositions, supplements, 96 well plates, substrates, activators, concentrations as well as different latent papain forms were compared. In order to get an overview of all experiments, a standard method is described in the following and variations of this method are subsequently defined. First, the well buffer was prepared (0.1 M phosphate buffer pH 7, 4 mM EDTA, 0.01% Brij35). A 1 mM TCEP solution was prepared with 3 mM NaOH in 0.1 M Tris-HCl buffer pH 8. Papain substrate (Z-Phe-Arg-AMC or Suc-Leu-Leu-Val-Tyr-AMC) was prepared as a 200 μM solution in water and transferred equally to a PCR strip. Three serial dilutions of the activating agent with well buffer were used in the different experiments and the corresponding pipetting schemes are shown in Table 9. Papain was diluted to 0.1 μM with well buffer and transferred equally to a PCR strip. […] 342.4 μL of TCEP containing well buffer was transferred to each well, followed by 3.8 μL papain solution. After mixing, 30 μL of the prepared activator concentrations (see Table 9) were added and mixed. In the last step, 3.8 μL of the substrate solution was added and mixed, to yield a final well composition of 0.1 M phosphate buffer pH 7, 1 nM papain, 2 μM substrate, activator (see Table 9), 4 mM EDTA, 0.01% Brij35 and 1 μM TCEP. For experiments with only one activator concentration of 10 μM, the transferred well buffer for each well was 368.6 μL, followed by 3.8 μL of papain, substrate and activator (1 mM in well buffer) respectively.

Experiment [3] addresses T2, latent papain, reversibly inactivated with S-methyl methanethiosulfonate (-S-S-CH3) (Carica papaya, UniProt P00784 134-345, catalytic Cys25 blocked as mixed disulfide -S-S-CH3).
T2 sequence: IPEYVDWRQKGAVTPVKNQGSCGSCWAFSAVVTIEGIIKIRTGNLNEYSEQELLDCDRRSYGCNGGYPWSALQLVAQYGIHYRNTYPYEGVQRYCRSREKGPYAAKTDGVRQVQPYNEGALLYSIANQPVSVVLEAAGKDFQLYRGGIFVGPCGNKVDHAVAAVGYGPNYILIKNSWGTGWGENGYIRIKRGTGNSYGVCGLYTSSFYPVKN
The experiment can be described thus: cell-based or functional assay.

Setting [4] is: FIG. 20, concentration series 50 nM-10 μM.

Where “and” joins values, the source holds several entries; their conditions need not be identical. Identical values can stand only once. No end group written: not given here.

Turning to `OCCS` [2-ME, 2-Mercaptoethan-1-ol], the “reaction rate compared to L-cysteine” value at latent papain P13 [1] is 70%.
`CC(=O)Nc1ccc(S)cc1` [4-acetamidothiophenol, 4-Acetamidothiophenol]: on latent papain P13 [2] (setting [4]), the “activator efficiency, in words” value was “more potent activators compared to the tripeptide”. For the same molecule, the “rate relative to the tripeptide H2N-CLR-CONH2” value on latent papain P13 [2] (concentration series 50 nM-10 μM (FIG. 20), selenocysteine prepared with TCEP) is recorded as “five times as efficient”.
Turning to `SCc1ccc(Cl)cc1` [4-chlorobenzyl mercaptan, 4-Chlorobenzyl mercaptan], the “normalized ratio rate/rate 10 μM cysteine of substrate hydrolysis after reactivation of latent papain” value at latent papain P13 [1] was 0.83.
Consider `Nc1nnc(S)s1` [5-Amino-1,3,4-thiadiazole-2-thiol], for which the “normalized ratio rate/rate 10 μM cysteine of substrate hydrolysis after reactivation of latent papain” value at latent papain P13 [1] is recorded as “almost no papain activation potential at all”.
In the case of `N[C@H](CS)C(=O)O` [D-cysteine], the “reaction rate compared to L-cysteine” value on latent papain P13 [1] stood at 70%.
For the molecule `N[C@@H](CCS)C(=O)O` [L-homocysteine, L-Homocysteine], the “normalized ratio rate/rate 10 μM cysteine of substrate hydrolysis after reactivation of latent papain” value on latent papain P13 [1] is “lower reaction rates”.
As to `CC(C)(S)[C@H](N)C(=O)O` [L-penicillamine, L-Penicillamine], the “normalized ratio rate/rate 10 μM cysteine of substrate hydrolysis after reactivation of latent papain” value at latent papain P13 [1] is on record as “lower reaction rates”.
As for `O=C(O)CCP(CCC(=O)O)CCC(=O)O` [TCEP, Tris(2-carboxyethyl)phosphine], the “activator efficiency, in words” value at latent papain P13 [2] (setting [4]) is “very little efficiency”.
Consider `Sc1ccccc1` [thiophenol, Thiophenol], for which the “normalized ratio rate/rate 10 μM cysteine of substrate hydrolysis after reactivation of latent papain” value on latent papain P13 [1] is on record as 4.86.
As for “H2N-C-C-R-G-CONH2 (H-CCRG-NH2; cysteine pairing not given here) [H2N—CCRG-CONH2]”, in the experiment with latent papain P13 [2], the “normalized ratio rate/rate cysteine ethyl ester (CysEE)” value was “most potent activators”.
Turning to “H2N-C-F-R-CONH2 (H-Cys-Phe-Arg-NH2) [H2N—CFR—CONH2]”, in the experiment with latent papain P13 [1], the “normalized ratio rate/rate 10 μM cysteine of substrate hydrolysis after reactivation of latent papain” value is given as “more than twice as high”.
In the case of “H2N-C-L-C-G-CONH2 (H-CLCG-NH2; cysteine pairing not given here) [H2N—CLCG-CONH2]”, the “normalized ratio rate/rate cysteine ethyl ester (CysEE)” value with latent papain P13 [2] is “most potent activators”.
In the case of “H2N-C-L-R-CONH2 (H-Cys-Leu-Arg-NH2) [H2N—CLR—CONH2]”, the “normalized ratio rate/rate 10 μM cysteine of substrate hydrolysis after reactivation of latent papain” value in the experiment with latent papain P13 [1] is “more than twice as high”. Moreover, in the experiment with latent papain P13 [2] (setting [4]), the “potency relative to (L-)cysteine” value is reported as “almost four times as efficient”. Moreover, the “normalized ratio rate/rate cysteine ethyl ester (CysEE)” value with latent papain P13 [2] is 1.8 and 1.81.
Take “H2N-C-L-R-G-CONH2 (H-CLRG-NH2) [H2N—CLRG-CONH2]”: in the experiment with latent papain P13 [2], the “normalized ratio rate/rate cysteine ethyl ester (CysEE)” value was determined as 1.29.
Same read-out and setting: the figure for “H2N-C-L-R-G-COOH (H-CLRG-OH) [H2N—CLRG-COOH]” is 0.51.
Take H-SECLRG-OH [H2N-S-E-C-L-R-G-COOH]: the “normalized ratio rate/rate cysteine ethyl ester after reactivation of latent papain P13 (1 nM), activator 50 nM” value in experiment [3] was < 1 rate/rate cysteine ethyl ester.
On to H-CLRCG-OH (cysteine pairing not given here) [H2N-CLRCG-COOH], for which, in experiment [3], the “normalized ratio rate/rate cysteine ethyl ester after reactivation of latent papain P13 (1 nM), activator 50 nM” value is 0.99 rate/rate cysteine ethyl ester.
Still for that read-out and setting: the figure for H-GGCGGG-OH [H2N-G-G-C-G-G-G-COOH] is < 1 rate/rate cysteine ethyl ester.
For the molecule H-FVCEKG-OH [H2N-F-V-C-E-K-G-COOH], the “normalized ratio rate/rate cysteine ethyl ester after reactivation of latent papain P13 (1 nM), activator 50 nM” value in experiment [3] is < 1 rate/rate cysteine ethyl ester.
For H-CLRG-OH [H2N-CLRG-COOH], the “normalized ratio rate/rate cysteine ethyl ester after reactivation of latent papain P13 (1 nM), activator 50 nM” value in experiment [3] was 0.51 rate/rate cysteine ethyl ester.
For the molecule H-Cys-Leu-Arg-NH2 [H2N-CLR-CONH2], in experiment [3], the “normalized ratio rate/rate cysteine ethyl ester after reactivation of latent papain P13 (1 nM), activator 50 nM” value was 1.81 rate/rate cysteine ethyl ester and the “reaction rate after reactivation of latent papain P13 (1 nM), concentration series 50 nM-10 uM, against free cysteine” value was ~4 fold of free cysteine.

B1: dU-triazole-PEG3-ULR dimer (21) (peptide)
peptide: X-Leu-Arg-NH2
modifications: not fully specified (residue 1, N-terminus); printed as dU-triazole-PEG3-ULR; also: diselenide dimer
Turning to B1, in experiment [3], the “normalized ratio rate/rate blank, P20 against P28” value is 2 fold of the normalized rate of P28; the “normalized ratio rate/rate blank, activator at half equimolar concentration of papain (printed 500 µM; papain 1 nM)” value was 33 fold of the background activity; the “normalized ratio rate/rate blank, activator at the lowest concentration (printed 50 µM; series starts at 50 pM)” value was 4 fold of the background activity; the “reaction rate after reactivation of latent papain (1 nM), activator 10 nM, against DTBA (9)” value is 23 fold of the rate with DTBA (9). Further, in experiment [3], the “reaction rate after reactivation of latent papain (1 nM), activator 10 nM, against DTT” value is 159 fold of the rate with DTT; the “reaction rate after reactivation of latent papain (1 nM), activator 50 nM, against DTBA (9)” value was 9 fold of the rate with DTBA (9); the “reaction rate after reactivation of latent papain (1 nM), activator 50 nM, against DTT” value is 128 fold of the rate with DTT.
Consider H-CLRG-NH2 [H2N-CLRG-CONH2], for which the “normalized ratio rate/rate cysteine ethyl ester after reactivation of latent papain P13 (1 nM), activator 50 nM” value in experiment [3] is 1.29 rate/rate cysteine ethyl ester.
As to H-GLCLRG-OH (not fully specified) [H2N-G-L-C-L-R-G-COOH], the “normalized ratio rate/rate cysteine ethyl ester after reactivation of latent papain P13 (1 nM), activator 50 nM” value in experiment [3] is < 1 rate/rate cysteine ethyl ester.
As for H-EGCGRG-OH [H2N-E-G-C-G-R-G-COOH], the “normalized ratio rate/rate cysteine ethyl ester after reactivation of latent papain P13 (1 nM), activator 50 nM” value in experiment [3] is < 1 rate/rate cysteine ethyl ester.
Consider H-GKCLRG-OH [H2N-G-K-C-L-R-G-COOH], for which, in experiment [3], the “normalized ratio rate/rate cysteine ethyl ester after reactivation of latent papain P13 (1 nM), activator 50 nM” value is < 1 rate/rate cysteine ethyl ester.
